Assay [1] concerns the target T1, human SIRPβ1 domain 1 (D1) Fc fusion (human, UniProt O00241 30-148).
T1 construct: Made in HEK293/T cells with a heterologous signal peptide; also called Human SIRPβ1 D1-Fc; Human SIRPβ1-Fc; not shown: C-terminal human IgG1 Fc
As to the kind of experiment: Octet, Fab monovalent.

The target in assay [2] is T2, mouse SIRPβ1 on CHO cells (mouse).
T2 construct: Whole entry
T2 chain: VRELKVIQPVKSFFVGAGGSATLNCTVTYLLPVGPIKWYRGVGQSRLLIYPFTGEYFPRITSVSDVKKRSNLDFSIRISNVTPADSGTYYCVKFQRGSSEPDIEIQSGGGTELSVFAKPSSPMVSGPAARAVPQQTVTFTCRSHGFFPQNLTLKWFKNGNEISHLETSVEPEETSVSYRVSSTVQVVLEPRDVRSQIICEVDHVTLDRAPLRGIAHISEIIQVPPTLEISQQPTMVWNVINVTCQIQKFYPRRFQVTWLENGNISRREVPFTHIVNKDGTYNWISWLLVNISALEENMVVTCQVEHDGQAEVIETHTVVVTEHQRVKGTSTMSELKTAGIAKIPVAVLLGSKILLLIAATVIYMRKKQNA
As to the kind of experiment: flow cytometry.

The target of assay [3] is T3, human SIRPα on cells (human, UniProt P78324 31-504).
T3 construct: Whole entry
The assay can be described thus: flow cytometry.

For assay [4], the target named is T4, Soluble, human SIRPβ1-Fc isoform 1 (O00241) (human, UniProt O00241 30-371, limits assumed).
T4 construct: Whole entry named; also called human SIRPβ1 isoform 1
T4 sequence (O00241 30-371 limits assumed, one chain of several): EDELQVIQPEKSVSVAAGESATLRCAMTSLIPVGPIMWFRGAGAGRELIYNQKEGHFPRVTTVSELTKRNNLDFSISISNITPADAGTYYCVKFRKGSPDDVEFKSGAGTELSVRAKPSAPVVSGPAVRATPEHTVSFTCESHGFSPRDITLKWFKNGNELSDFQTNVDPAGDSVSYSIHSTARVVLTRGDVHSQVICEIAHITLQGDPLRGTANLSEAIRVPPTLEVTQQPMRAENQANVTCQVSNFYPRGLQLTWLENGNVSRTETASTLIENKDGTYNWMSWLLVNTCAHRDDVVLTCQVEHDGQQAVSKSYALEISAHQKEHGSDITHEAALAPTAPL
The assay can be described thus: ELISA, antigen coated. (In general: ELISA stands for enzyme-linked immunosorbent assay.)
From the text: Recombinant antigen based on the sequence of SIRPβ1 isoform 1 was used for selecting anti-SIRPβ1 antibodies from yeast library pools. To ascertain if the selected anti-SIRPβ1 antibodies cross-reacted with other isoforms of human SIRPβ1 or with cynomolgus SIRPβ1, recombinant antigens based on human SIRPβ1 isoform 3 sequence and cynomolgus SIRPβ1 isoform 1 sequence were produced by transient transfection in HEK293 cells. Purified, Fc-tagged recombinant proteins were adsorbed onto 96-well plates at 1 μg/mL overnight at 4° C. Plates were subsequently washed with PBS+0.05% Tween-20 and blocked with 1% BSA+PBS for 2 hours at room temperature. Antibodies diluted in blocking buffer at 1 μg/mL were added to wells, serially diluted, and allowed to bind antigen overnight at 4° C. The following day, the primary antibodies were removed and anti-human kappa light chain antibody conjugated to horseradish peroxidase diluted 1:10,000 in blocking buffer were added to wells and incubated for 1 hour at room temperature. Plates were washed with PBS+0.05% Tween-20 and 100 μL of TMB substrate solution was added to wells to generate a colorimetric signal proportional to amount of anti-SIRPβ1 antibody bound to antigen. Once the reaction reached an appropriate color intensity, 100 μL of Stop solution was added to quench the enzyme.
(§1) Eight anti-SIRPβ1 antibodies (four parental antibodies and four corresponding affinity matured antibodies) were selected for analysis.

In assay [5] the target is T2, mouse SIRPβ1 on CHO cells. The assay can be described thus: flow cytometry. In general terms: Flow cytometry measures light scatter and fluorescence of single cells or particles in a stream.
Method: (§2) Cells were then washed twice and incubated in 100 ul FACS buffer containing 0.5 μg/ml PE-conjugated secondary antibody for 30 minutes on ice. Cells were washed twice in cold FACS buffer and acquired on a BD FACS Canto. Data analysis and calculation of mean fluorescence intensity (MFI) values or 00 positive cells was performed with FlowJo (TreeStar) software version 10.0.7.
(§3) Given the high sequence similarity between receptors of the SIRPβ family, anti-SIRPβ1 antibodies were also screened for cross-reactivity to human SIRPα.
Assay [6] deals with T5, human SIRPβ1 isoform 1 on cells (human, UniProt O00241 30-398).
T5 construct: On CHO cells (low level), on BWZ/BW5147.G.1.4 cells (reporter cells co-express human DAP12) or on primary human myeloid cells; also called huSIRPβ1; BWZ-huSIRPβ1
T5 sequence (O00241 30-398): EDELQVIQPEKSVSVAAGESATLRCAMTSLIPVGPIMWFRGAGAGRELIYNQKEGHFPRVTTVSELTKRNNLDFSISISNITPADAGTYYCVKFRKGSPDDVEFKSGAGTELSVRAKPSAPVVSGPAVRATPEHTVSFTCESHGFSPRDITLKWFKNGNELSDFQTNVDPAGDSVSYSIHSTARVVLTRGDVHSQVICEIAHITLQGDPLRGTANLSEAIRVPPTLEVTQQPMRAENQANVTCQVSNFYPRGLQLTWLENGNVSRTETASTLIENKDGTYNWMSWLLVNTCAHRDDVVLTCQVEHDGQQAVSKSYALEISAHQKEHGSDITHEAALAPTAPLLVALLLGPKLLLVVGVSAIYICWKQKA
As to the kind of experiment: flow cytometry.
Method: as §2, §3

For assay [7], the target named is T3, human SIRPα on cells. As to the kind of experiment: flow cytometry. This is another data set of the same source.
Method: as §2, §3
Assay [8] deals with T5, human SIRPβ1 isoform 1 on cells. As to the kind of experiment: cell binding titration; target not given.
Assay [9] deals with T6, human SIRPα domain 1 (D1) Fc fusion (human, UniProt P78324 32-149).
T6 construct: also called human SIRPα D1-Fc; Human SIRPα Fc; not shown: C-terminal human IgG1 Fc
As to the kind of experiment: Octet, IgG avid. (In general: Biolayer interferometry detects binding as a change in optical thickness at a sensor tip.)

The target of assay [10] is T1, human SIRPβ1 domain 1 (D1) Fc fusion. As to the kind of experiment: Octet, Fab monovalent. The source holds these as a separate data set.
Method: Briefly, Octet® affinity measurements were performed by loading IgGs on-line onto AHQ sensors. Sensors were equilibrated off-line in assay buffer for 30 min and then monitored on-line for 60 seconds for baseline establishment. For avid binding measurement, sensors with loaded IgGs were exposed to 100 nM antigen (human SIRPα or SIRPβ1 Fc fusion) for 3 min, and then transferred to assay buffer for 3 min for off-rate measurement. Additional avid binding was determined by loading biotinylated SIRPβ1 monomer on SA sensors and exposuring to 100 nM IgG in solution. Monovalent binding measurements were obtained by loading human SIRPβ1 Fc fusion antigens to AHQ sensor, followed by exposure to 100 nM anti-SIRPβ1 antibody Fab. Additional monovalent measurements were made by loading biotinylated human SIRPβ1 monomer to SA sensor followed by exposure to 100 nM Fab in solution. Kinetics data were fit using a 1:1 binding model in the data analysis software provided by ForteBio.
Assay [11] deals with T2, mouse SIRPβ1 on CHO cells. The assay can be described thus: flow cytometry.
Assay [12] has as its target T7, mouse SIRPα on cells (mouse, UniProt P97797 32-513).
T7 construct: whole, on cells
T7 sequence (looked up): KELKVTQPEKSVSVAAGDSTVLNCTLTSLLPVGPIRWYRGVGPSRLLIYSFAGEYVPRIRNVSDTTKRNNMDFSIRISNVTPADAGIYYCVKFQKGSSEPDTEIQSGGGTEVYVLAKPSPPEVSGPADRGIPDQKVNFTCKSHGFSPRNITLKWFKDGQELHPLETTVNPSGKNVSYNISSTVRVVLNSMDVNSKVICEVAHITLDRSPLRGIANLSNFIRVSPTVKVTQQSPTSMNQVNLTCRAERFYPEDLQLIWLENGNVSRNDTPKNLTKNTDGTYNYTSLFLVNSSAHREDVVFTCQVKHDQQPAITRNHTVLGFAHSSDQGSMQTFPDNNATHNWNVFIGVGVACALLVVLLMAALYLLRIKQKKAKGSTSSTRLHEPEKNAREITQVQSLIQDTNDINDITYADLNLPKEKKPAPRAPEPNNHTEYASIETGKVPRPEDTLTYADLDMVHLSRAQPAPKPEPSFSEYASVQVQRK
As to the kind of experiment: flow cytometry.

Assay [13] addresses T5, human SIRPβ1 isoform 1 on cells. The assay can be described thus: flow cytometry. The source holds these as a separate data set.
For assay [14], the target named is T3, human SIRPα on cells. As to the kind of experiment: flow cytometry. The source holds these as a separate data set.
The target in assay [15] is T7, mouse SIRPα on cells. As to the kind of experiment: flow cytometry. This is another data set of the same source.
For assay [16], the target named is T8, mouse SIRPα D1-Fc (mouse, UniProt P97797 32-150, limits assumed).
T8 construct: domain: D1
T8 sequence (looked up): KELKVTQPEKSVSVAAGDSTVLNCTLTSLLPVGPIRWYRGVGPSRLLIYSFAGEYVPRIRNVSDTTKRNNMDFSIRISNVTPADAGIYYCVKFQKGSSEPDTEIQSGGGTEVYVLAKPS
The assay can be described thus: Octet.

Assay [17] deals with T1, human SIRPβ1 domain 1 (D1) Fc fusion. The assay can be described thus: Octet, IgG avid.
Assay [18] addresses T9, human SIRPβ1-Fc isoform 3 (Q5TFQ8) (human, UniProt Q5TFQ8 30-371, limits assumed).
T9 construct: Whole entry named; made in HEK293 cells; also called human SIRPβ1 isoform 3
The assay can be described thus: ELISA on plate-coated huSirpB-Fc (Q5TFQ8.1), anti-human kappa-HRP, A450.
Method: To ascertain if the selected anti-SIRPβ1 antibodies cross-reacted with other isoforms of human SIRPβ1 or with cynomolgus SIRPβ1, recombinant antigens based on human SIRPβ1 isoform 3 sequence and cynomolgus SIRPβ1 isoform 1 sequence were produced by transient transfection in HEK293 cells. Purified, Fc-tagged recombinant proteins were adsorbed onto 96-well plates at 1 μg/mL overnight at 4° C. Plates were subsequently washed with PBS+0.05% Tween-20 and blocked with 1% BSA+PBS for 2 hours at room temperature. Antibodies diluted in blocking buffer at 1 μg/mL were added to wells, serially diluted, and allowed to bind antigen overnight at 4° C. The following day, the primary antibodies were removed and anti-human kappa light chain antibody conjugated to horseradish peroxidase diluted 1:10,000 in blocking buffer were added to wells and incubated for 1 hour at room temperature. Plates were washed with PBS+0.05% Tween-20 and 100 μL of TMB substrate solution was added to wells to generate a colorimetric signal proportional to amount of anti-SIRPβ1 antibody bound to antigen. Once the reaction reached an appropriate color intensity, 100 μL of Stop solution was added to quench the enzyme.
as §1

Experimental findings from patent publication US20250026827A1 (Alector, published 2025) are described below.

Positions count from the first letter of the chain named. Where two headings read alike, the source gives them in different places.

T1 sequence (O00241 30-148 limits assumed): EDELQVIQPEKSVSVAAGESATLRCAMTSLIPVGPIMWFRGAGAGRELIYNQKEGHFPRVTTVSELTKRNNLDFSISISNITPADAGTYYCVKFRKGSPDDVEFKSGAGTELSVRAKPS
T9 sequence (Q5TFQ8 30-371 limits assumed, one chain of several): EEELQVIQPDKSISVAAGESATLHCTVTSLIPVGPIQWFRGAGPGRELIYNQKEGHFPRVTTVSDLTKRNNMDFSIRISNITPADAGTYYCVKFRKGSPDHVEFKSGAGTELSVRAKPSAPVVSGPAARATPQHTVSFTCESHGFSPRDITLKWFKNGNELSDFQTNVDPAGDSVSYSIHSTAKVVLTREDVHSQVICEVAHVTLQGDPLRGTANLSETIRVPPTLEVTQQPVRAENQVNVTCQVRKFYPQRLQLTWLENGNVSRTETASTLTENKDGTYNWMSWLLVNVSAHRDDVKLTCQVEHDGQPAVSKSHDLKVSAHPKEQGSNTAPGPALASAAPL

B1: SB-49 Fab (Fab, V domains shown)
VH: QLQLQESGPGLVKPSETLSLTCTVSGGSISSSDYYWGWIRQPPGKGLEWIGSIYYSGSTYYNPSLKSRVTISVDTSKNQFSLKLSSVTAADTAVYYCARGPTGYKDKWRYYYGMDVWGQGTTVTVSS
VL: DIQMTQSPSSLSASVGDRVTITCQASQDITNYLNWYQQKPGKAPKLLIYDASNLETGVPSRFSGSGSGTDFTFTISSLQPEDIATYYCQQYFHPPLTFGGGTKVEIK
notes: Fab by papain digestion
One may read the Kd as a measure of binding affinity in units of concentration. As to B1, binding in assay [1] was characterised by a dissociation constant (Kd) of 156 nM.

B2: SB-17 Fab (Fab, V domains shown)
VH: QVQLVQSGAEVKKPGASVKVSCKASGYTFTSYGISWVRQAPGQGLEWMGWISAYNGNTNYAQKLQGRVTMTTDTSTSTAYMELRSLRSDDTAVYYCARGPLLYGDYHVRYGMDVWGQGTTVTVSS
VL: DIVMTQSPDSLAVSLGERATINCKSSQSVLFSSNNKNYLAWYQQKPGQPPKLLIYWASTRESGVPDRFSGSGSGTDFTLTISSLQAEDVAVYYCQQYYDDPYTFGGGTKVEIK
notes: Fab by papain digestion
In the case of B2, binding in assay [1] was put at a Kd of 246 nM.

B3: SB-15 Fab (Fab, V domains shown)
VH: QLQLQESGPGLVKPSETLSLTCTVSGGSISSNSYYWGWIRQPPGKGLEWIGSIYYSGSTYYNPSLKSRVTISVDTSKNQFSLKLSSVTAADTAVYYCAREVGAPPSYPFDIWGQGTMVTVSS
VL: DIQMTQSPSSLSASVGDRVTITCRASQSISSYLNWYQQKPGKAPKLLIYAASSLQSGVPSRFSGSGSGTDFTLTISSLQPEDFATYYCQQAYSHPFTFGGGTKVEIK
notes: Fab by papain digestion
In assay [1], B3 gave an equilibrium dissociation constant (Kd) of 407 nM.

B4: SB-40-21 (antibody, V domains shown)
VH: QVQLVQSGAEVKKPGASVKVSCKASGYTFTSYYMVWVRQAPGQGLEWMGIINPSSGDTNYAQKFQGRVTMTRDTSISTAYMELSRLRSDDTAVYYCARDTGEYSYSPHGMDVWGQGTTVTVSS
VL: EIVLTQSPATLSLSPGERATLSCRASQSVSSYLAWYQQKPGQAPRLLIYDSSNRATGIPARFSGSGSGTDFTLTISSLEPEDFAVYYCQQRDEHPPWTFGGGTKVEIK
notes: IgG
For orientation: EC50 means the midpoint of the concentration-response curve. A low value points to higher potency in that assay. For B4, the results for the binding result in assay [2], in [3] and in assay [9] were “no binding (tested: 1 ug/ml)”, “no binding (tested: 1 ug/ml)” and “no binding (tested: 100 nM)”, respectively. Further, the EC50 in [4] is 0.025 nM; in [8] it was 0.715 nM. Besides, the FOB in [5] was 2 fold over background; in assay [6] it was 5 fold over background; in assay [7] it was 1 fold over background.

B5: SB-40 Fab (Fab, V domains shown)
VH: B4 VH with V35S, S55G, D57S, N59S, I76T, A79V, R85S, D89E
VL: B4 VL
notes: Fab by papain digestion
As to B5, the Kd in [10] is 918 nM; in assay [1] it was 427 nM.

B6: SB-11 Fab (Fab, V domains shown)
VH: QVQLVQSGAEVKKPGSSVKVSCKASGGTFSNYAISWVRQAPGQGLEWMGGIIPIFGTANYAQKFQGRVTITADESTSTAYMELSSLRSEDTAVYYCARPVDSSSYSLGYYYGMDVWGKGTTVTVSS
VL: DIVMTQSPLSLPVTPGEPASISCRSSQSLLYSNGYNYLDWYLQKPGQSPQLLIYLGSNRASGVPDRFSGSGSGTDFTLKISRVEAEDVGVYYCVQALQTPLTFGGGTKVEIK
notes: Fab by papain digestion
Turning to B6, the Kd in assay [1] came out at 678 nM.

B7: SB-8 (antibody, V domains shown)
VH: QVQLQESGPGLVKPSETLSLTCAVSGYSISSGYYWGWIRQPPGKGLEWIGSIYHSGSTYYNPSLKSRVTISVDTSKNQFSLKLSSVTAADTAVYYCARGGAMTPAGMDVWGQGTTVTVSS
VL: EIVMTQSPGTLSLSPGERATLSCRASQSVSSSYLAWYQQKPGQAPRLLIYGASNRATGIPDRFSGSGSGTDFTLTISRLEPEDFAVYYCQQVYSSPYTFGGGTKVEIK
notes: IgG; also called SB-8 (p)
Turning to B7, the FOB in assay [11] is 1.7 fold over background; in assay [12], 1.2 fold over background; in [13] it was 4.1 fold over background; in assay [14] it was 2.1 fold over background; in assay [5], 2 fold over background; in assay [6] it was 2 fold over background. In [7], this molecule gave an FOB of 1 fold over background. Also, the binding result in [2] was “no binding (tested: 1 ug/ml)”; in [15] it was “no binding (tested: 1 ug/ml)”; in [16], “no binding (tested: 100 nM)”; in [18], “no binding (tested: 1 ug/mL)”. For the same molecule, the Kd in assay [17] is 2.72 nM. Moreover, the EC50 in assay [4] turned out to be 0.022 nM; in [8] it was 0.441 nM.

B8: SB-1 Fab (Fab, V domains shown)
VH: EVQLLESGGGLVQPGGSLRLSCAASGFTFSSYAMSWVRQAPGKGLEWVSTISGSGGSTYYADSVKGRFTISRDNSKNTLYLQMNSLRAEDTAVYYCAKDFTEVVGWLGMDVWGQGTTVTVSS
VL: B7 VL with N54S, Q91L, V92L, Y93G, Y97R
notes: Fab by papain digestion
With B8, the Kd was 172 nM in [10] and 97.9 nM in assay [1].

B9: SB-2 Fab (Fab, V domains shown)
VH: QVQLVESGGGVVQPGRSLRLSCAASGFTFSSYGMNWVRQAPGKGLEWVAVIWYDGSNKYYADSVKGRFTISRDNSKNTLYLQMNSLRAEDTAVYYCARDQTAAAAIWGMDVWGQGTTVTVSS
VL: B7 VL with M4L, N54S, V92S, Y93S, S95H, Y97F
notes: Fab by papain digestion
On to B9, for which the Kd in [10] was 977 nM; in [1], 266 nM.

B10: SB-2-11 (antibody, V domains shown)
VH: QVQLVESGGGLVQPGGSLRLSCAASGFTFARYGMHWVRQAPGKGLEWVSAISGLAGPTYADSVKGRFTISRDNSKNTLYLQMNSLRAEDTAVYYCARDQTAAWGIWGMDVWGQGTTVTVSS
VL: B7 VL with M4L, N54S, V92S, Y93S, S95H, Y97F
notes: IgG
B10: the values for the binding result in assay [2], in assay [3] and in assay [9] were “no binding (tested: 1 ug/ml)”, “no binding (tested: 1 ug/ml)” and “no binding (tested: 100 nM)”, respectively. Further, the FOB in assay [5] came out at 2 fold over background; in assay [6], 6 fold over background; in assay [7], 0 fold over background. The EC50 in assay [8] was determined as 0.22 nM.

B11: SB-8 Fab (Fab, V domains shown)
VH: B7 VH
VL: B7 VL
notes: Fab by papain digestion
In the case of B11, the figures for the Kd in assay [10] and in [1] were 151 nM and 126 nM, respectively.

B12: SB-2-10 (antibody, V domains shown)
VH: B10 VH with Q1E, V5L, A30G, R31S, P57Q, W103A, G104A
VL: B7 VL with M4L, N54S, V92S, Y93S, S95H, Y97F
notes: IgG
As for B12, the binding result in [2] was “no binding (tested: 1 ug/ml)”; in assay [3], “no binding (tested: 1 ug/ml)”; in assay [9], “no binding (tested: 100 nM)”. In addition, the FOB in assay [5] was determined as 2 fold over background; in assay [6], 4 fold over background; in assay [7] it was 1 fold over background. Moreover, in [8], the EC50 is 0.234 nM.

B13: SB-6 Fab (Fab, V domains shown)
VH: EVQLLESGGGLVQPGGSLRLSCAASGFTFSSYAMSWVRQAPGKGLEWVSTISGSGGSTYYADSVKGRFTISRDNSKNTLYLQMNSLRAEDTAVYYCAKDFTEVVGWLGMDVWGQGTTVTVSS
VL: B7 VL with M4L, N54S, V92S, Y93G, S94H, S95L, Y97I
notes: Fab by papain digestion
The molecule B13 displayed a Kd in assay [1] of 131 nM.
